B1: IgG1-F1116 (antibody)
heavy: QVQLQESGPGLVKPSETLSLTCAVSGHSISHDHAWSWVRQPPGEGLEWIGFISYSGITNYNPSLQGRVTISRDNSKNTLYLQMNSLRAEDTAVYYCARSLARTTAMDYWGEGTLVTVSSASTKGPSVFPLAPSSKSTSGGTAALGCLVKDYFPEPVTVSWNSGALTSGVHTFPAVLQSSGLYSLSSVVTVPSSSLGTQTYICNVNHKPSNTKVDKKVEPKSCDKTHTCPPCPAPELLGGPSVFLFPPKPKDTLYISRTPEVTCVVVDVSHEDPEVKFNWYVDGVEVHNAKTKPREEQYNSTYRVVSVLQVLHADWLNGKEYKCKVSNKALPAPIEKTISKAKGQPREPQVYTLPPSRDELTKNQVSLTCLVKGFYPSDIAVEWESNGQPENNYKTTPPVLDSDGSFFLYSKLTVDKSRWQQGNVFNCSVMHEALHYHYTQKSLSLSP
light: not shown
notes: VH3-IgG1 with Fc substitutions (EU numbering) + L(WT)-CK
B2: IgG1-F1123 (antibody)
heavy: QVQLQESGPGLVKPSETLSLTCAVSGHSISHDHAWSWVRQPPGEGLEWIGFISYSGITNYNPSLQGRVTISRDNSKNTLYLQMNSLRAEDTAVYYCARSLARTTAMDYWGEGTLVTVSSASTKGPSVFPLAPSSKSTSGGTAALGCLVKDYFPEPVTVSWNSGALTSGVHTFPAVLQSSGLYSLSSVVTVPSSSLGTQTYICNVNHKPSNTKVDKKVEPKSCDKTHTCPPCPAPELLGGPSVFLFPPKPKDVLYISRTPEVTCVVVDVSHEDPEVKFNWYVDGVEVHNAKTKPREEQYNSTYRVVSVLQPLHADWLNGKEYKCKVSNKALPAPIEKTISKAKGQPREPQVYTLPPSRDELTKNQVSLTCLVKGFYPSDIAVEWESNGQPENNYKTTPPVLDSDGSFFLYSKLTVDKSRWQQGNVFSCSVMHEALHYHVTQKELSLSP
light: not shown
notes: as for B1
B3: IgG1-F1118 (antibody)
heavy: QVQLQESGPGLVKPSETLSLTCAVSGHSISHDHAWSWVRQPPGEGLEWIGFISYSGITNYNPSLQGRVTISRDNSKNTLYLQMNSLRAEDTAVYYCARSLARTTAMDYWGEGTLVTVSSASTKGPSVFPLAPSSKSTSGGTAALGCLVKDYFPEPVTVSWNSGALTSGVHTFPAVLQSSGLYSLSSVVTVPSSSLGTQTYICNVNHKPSNTKVDKKVEPKSCDKTHTCPPCPAPELLGGPSVFLFPPKPKDVLYISRTPEVTCVVVDVSHEDPEVKFNWYVDGVEVHNAKTKPREEQYNSTYRVVSVLQPLHADWLNGKEYKCKVSNKALPAPIEKTISKAKGQPREPQVYTLPPSRDELTKNQVSLTCLVKGFYPSDIAVEWESNGQPENNYKTTPPVLDSDGSFFLYSKLTVDKSRWQQGNVFNCSVMHEALHYHVTQKSLSLSP
light: not shown
notes: as for B1
B4: IgG1-F1119 (antibody)
heavy: QVQLQESGPGLVKPSETLSLTCAVSGHSISHDHAWSWVRQPPGEGLEWIGFISYSGITNYNPSLQGRVTISRDNSKNTLYLQMNSLRAEDTAVYYCARSLARTTAMDYWGEGTLVTVSSASTKGPSVFPLAPSSKSTSGGTAALGCLVKDYFPEPVTVSWNSGALTSGVHTFPAVLQSSGLYSLSSVVTVPSSSLGTQTYICNVNHKPSNTKVDKKVEPKSCDKTHTCPPCPAPELLGGPSVFLFPPKPKDVLYISRTPEVTCVVVDVSHEDPEVKFNWYVDGVEVHNAKTKPREEQYNSTYRVVSVLQPLHADWLNGKEYKCKVSNKALPAPIEKTISKAKGQPREPQVYTLPPSRDELTKNQVSLTCLVKGFYPSDIAVEWESNGQPENNYKTTPPVLDSDGSFFLYSKLTVDKSRWQQGNEFSCSVMHEALHYHVTQKSLSLSP
light: not shown
notes: as for B1
B5: IgG1-F1117 (antibody)
heavy: QVQLQESGPGLVKPSETLSLTCAVSGHSISHDHAWSWVRQPPGEGLEWIGFISYSGITNYNPSLQGRVTISRDNSKNTLYLQMNSLRAEDTAVYYCARSLARTTAMDYWGEGTLVTVSSASTKGPSVFPLAPSSKSTSGGTAALGCLVKDYFPEPVTVSWNSGALTSGVHTFPAVLQSSGLYSLSSVVTVPSSSLGTQTYICNVNHKPSNTKVDKKVEPKSCDKTHTCPPCPAPELLGGPSVFLFPPKPKDVLYISRTPEVTCVVVDVSHEDPEVKFNWYVDGVEVHNAKTKPREEQYNSTYRVVSVLQVLHADWLNGKEYKCKVSNKALPAPIEKTISKAKGQPREPQVYTLPPSRDELTKNQVSLTCLVKGFYPSDIAVEWESNGQPENNYKTTPPVLDSDGSFFLYSKLTVDKSRWQQGNVFNCSVMHEALHYHVTQKSLSLSP
light: not shown
notes: as for B1
B6: IgG1-F1122 (antibody)
heavy: QVQLQESGPGLVKPSETLSLTCAVSGHSISHDHAWSWVRQPPGEGLEWIGFISYSGITNYNPSLQGRVTISRDNSKNTLYLQMNSLRAEDTAVYYCARSLARTTAMDYWGEGTLVTVSSASTKGPSVFPLAPSSKSTSGGTAALGCLVKDYFPEPVTVSWNSGALTSGVHTFPAVLQSSGLYSLSSVVTVPSSSLGTQTYICNVNHKPSNTKVDKKVEPKSCDKTHTCPPCPAPELLGGPSVFLFPPKPKDVLYISRTPEVTCVVVDVSHEDPEVKFNWYVDGVEVHNAKTKPREEQYNSTYRVVSVLQPLHADWLNGKEYKCKVSNKALPAPIEKTISKAKGQPREPQVYTLPPSRDELTKNQVSLTCLVKGFYPSDIAVEWESNGQPENNYKTTPPVLDSDGSFFLYSKLTVDKSRWQQGNVFSCSVMHEALHYHVTRKSLSLSP
light: not shown
notes: as for B1
B7: IgG1-F1124 (antibody)
heavy: QVQLQESGPGLVKPSETLSLTCAVSGHSISHDHAWSWVRQPPGEGLEWIGFISYSGITNYNPSLQGRVTISRDNSKNTLYLQMNSLRAEDTAVYYCARSLARTTAMDYWGEGTLVTVSSASTKGPSVFPLAPSSKSTSGGTAALGCLVKDYFPEPVTVSWNSGALTSGVHTFPAVLQSSGLYSLSSVVTVPSSSLGTQTYICNVNHKPSNTKVDKKVEPKSCDKTHTCPPCPAPELLGGPSVFLFPPKPKDVLYISRTPEVTCVVVDVSHEDPEVKFNWYVDGVEVHNAKTKPREEQYNSTYRVVSVLQPLHADWLNGKEYKCKVSNKALPAPIEKTISKAKGQPREPQVYTLPPSRDELTKNQVSLTCLVKGFYPSDIAVEWESNGQPENNYKTTPPVLDSDGSFFLYSKLTVDKSRWQQGNVFSCSVMHEALHYHVTRKELSLSP
light: not shown
notes: as for B1
B8: IgG1-F1120 (antibody)
heavy: QVQLQESGPGLVKPSETLSLTCAVSGHSISHDHAWSWVRQPPGEGLEWIGFISYSGITNYNPSLQGRVTISRDNSKNTLYLQMNSLRAEDTAVYYCARSLARTTAMDYWGEGTLVTVSSASTKGPSVFPLAPSSKSTSGGTAALGCLVKDYFPEPVTVSWNSGALTSGVHTFPAVLQSSGLYSLSSVVTVPSSSLGTQTYICNVNHKPSNTKVDKKVEPKSCDKTHTCPPCPAPELLGGPSVFLFPPKPKDVLYISRTPEVTCVVVDVSHEDPEVKFNWYVDGVEVHNAKTKPREEQYNSTYRVVSVLQPLHADWLNGKEYKCKVSNKALPAPIEKTISKAKGQPREPQVYTLPPSRDELTKNQVSLTCLVKGFYPSDIAVEWESNGQPENNYKTTPPVLDSDGSFFLYSKLTVDKSRWQQGNVFRCSVMHEALHYHVTQKSLSLSP
light: not shown
notes: as for B1
B9: IgG1-F1121 (antibody)
heavy: QVQLQESGPGLVKPSETLSLTCAVSGHSISHDHAWSWVRQPPGEGLEWIGFISYSGITNYNPSLQGRVTISRDNSKNTLYLQMNSLRAEDTAVYYCARSLARTTAMDYWGEGTLVTVSSASTKGPSVFPLAPSSKSTSGGTAALGCLVKDYFPEPVTVSWNSGALTSGVHTFPAVLQSSGLYSLSSVVTVPSSSLGTQTYICNVNHKPSNTKVDKKVEPKSCDKTHTCPPCPAPELLGGPSVFLFPPKPKDVLYISRTPEVTCVVVDVSHEDPEVKFNWYVDGVEVHNAKTKPREEQYNSTYRVVSVLQPLHADWLNGKEYKCKVSNKALPAPIEKTISKAKGQPREPQVYTLPPSRDELTKNQVSLTCLVKGFYPSDIAVEWESNGQPENNYKTTPPVLDSDGSFFLYSKLTVDKSRWQQGNEFRCSVMHEALHYHVTQKSLSLSP
light: not shown
notes: as for B1

In this test the target is T1, soluble human FcRn (heterodimer of FcRn alpha chain and beta2-microglobulin) (human, UniProt P55899 24-297; P61769 21-119).
T1 construct: Expressed in HEK293H and purified on IgG Sepharose; also called hFcRn
T1 sequence (P55899 24-297 limits assumed, chain 1 of 2): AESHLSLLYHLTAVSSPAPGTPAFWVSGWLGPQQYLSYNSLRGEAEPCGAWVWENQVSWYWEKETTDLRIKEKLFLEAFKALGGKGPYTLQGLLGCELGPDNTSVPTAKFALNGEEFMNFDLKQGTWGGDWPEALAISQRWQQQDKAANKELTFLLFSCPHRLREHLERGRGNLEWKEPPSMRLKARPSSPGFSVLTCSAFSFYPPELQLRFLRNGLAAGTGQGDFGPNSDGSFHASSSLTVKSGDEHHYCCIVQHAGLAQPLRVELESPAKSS
T1 sequence (P61769 21-119 limits assumed, chain 2 of 2): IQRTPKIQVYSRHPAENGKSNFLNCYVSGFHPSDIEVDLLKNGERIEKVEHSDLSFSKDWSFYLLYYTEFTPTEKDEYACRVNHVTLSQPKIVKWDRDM
The experiment in a line: SPR Biacore T100, antibody captured via protein L, hFcRn analyte, pH 7.0, 25 C.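 Also: KD derived from kinetic ka and kd fits of sensorgrams, CM4 sensor chip, sodium phosphate NaCl Tween20 running buffer, buffer-only injection used as reference.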 In general terms: Surface plasmon resonance follows binding to a sensor surface in real time, without labels.
The Kd is the concentration at which binding is half-saturated. Higher therefore signals a looser complex. For B1, the Kd came out at 74 nM.
Next, B2: 9.5 nM.
Take B3: the Kd stood at 13 nM.
Consider B4, for which the Kd stood at 10 nM.
Next, B5: 49 nM; B6: 14 nM; B7: 12 nM.
Turning to B8, binding was characterised by a dissociation constant (Kd) of 10 nM.
Next, B9: 10 nM.
